From the RNAGym collection of RNA variant scans (doi:10.1073/pnas.2313332121) come the findings set out here.

Fewer inactive variants are shown than the library holds. Where only a bound is given, the exact number is not on record here.

B1: TPR 5TU (parent)
chain: GGAUCUUCUCGAUCUAACAAAAAAGACAAAUCUGCCACAAAGCUUGAGAGCAUCUUCGGAUGCAGAGGCGGCAGCCUUCGGUGGCGCGAUAGCGCCAACGUUCUCAACUAUGACACGCAAAACGCGUGCUCCGUUGAAUGGAGUUUAUCAUG

This series covers variants of B1. In words: polymerase ribozyme fitness, log enrichment relative to wild type (log ratio); higher = more active; in vitro selection for triplet polymerase activity. The method in brief:
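Mutant libraries for each subunit of a heterodimeric triplet polymerase ribozyme were made by PCR and then transcribed. Each library underwent one round of in vitro selection in triplicate: annealing with a biotinylated primer, the partner subunit and triplets, frozen incubation at −7 °C, gel excision of extended constructs, streptavidin-bead capture and RT-PCR. Input and output libraries were Illumina-sequenced, and only genotypes with ≥10 input reads and ≥1 read per output were kept. Fitness is the logarithm, base 2, of genotype enrichment over wild-type enrichment, computed from inverse-variance-weighted replicate averages.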
C5G G136A: the “polymerase ribozyme fitness (log ratio)” value was 0.0107.
For U6A U53A G86A A91C G128C the value was no more than -4.2.
Then U4A A60C G71U G92C C108G G117A G124U A137C, with no more than -4.2.
For C5A U6G G46A U56A U82C C93A A107G C125U G136U the value was no more than -4.2; for C5A A12C A19U U102G C116A A119G U135A G136C, no more than -4.2.
U4G A73G A97G: the “polymerase ribozyme fitness (log ratio)” value is 0.0284.
For C5A G11C C85U A119C C131G G141C the value was 0.451; for A3U G143U, -2.76; for C5U A12C A40C U61A C95U, -2.18.
C5A C18U G86U: the “polymerase ribozyme fitness (log ratio)” value is -1.4.
Then U4G A52C G83A, with -2.69; and C5G A39G C51U A106G, with no more than -4.2.
In the case of C5U C38G A66U G94C, the “polymerase ribozyme fitness (log ratio)” value is no more than -4.2.
For U6A A12G A17C G25C U55G A89G the value was -3.61; for C5G G141C, -0.606; for C5U C8G A12G A19U U55G C87A C96G A147C, no more than -4.2.
Then C5U U9G A12C U33G G58A G88A A91G G94A A113C A121C, with no more than -4.2; and C5A C14G A19G C36A U102G C132G, with no more than -4.2.
For U4C A21G G42A G48C G50C A64U G84C U102G U127A the value was no more than -4.2; for C5U C93G, -3.16.
As to C5U C93U, the “polymerase ribozyme fitness (log ratio)” value came out at 0.375.
For C5G A16G A21U C93U U101G A110C C116U G124C the value was no more than -4.2; for U6A A21U C76A G86U, -2.79.
Then U4G U7C A16G C96G, with -2.73; and U4C C96A, with -0.253; and U4C U15C A22C A29U C43G U44A U45G C57U G59U C93U, with no more than -4.2.
Regarding U4G A41C A137C, the “polymerase ribozyme fitness (log ratio)” value is no more than -4.2.
As to U4C A49U G94A A106G C123U, the “polymerase ribozyme fitness (log ratio)” value is -1.94.
On to U6A A47C G59U G81A C95G G141C, for which the “polymerase ribozyme fitness (log ratio)” value is no more than -4.2.
Then C5G C105U, with -0.0507.
For the variant C5G A30C G81U A138C U144C, the “polymerase ribozyme fitness (log ratio)” value was no more than -4.2.
For U6A A91C the value was no more than -4.2; for C5U A16C A17U C27U A49C U55G, no more than -4.2.
For U4G C14G C76G the value was no more than -4.2; for C5A A20U C35U A91C U101A C105G U145G, no more than -4.2.
For C5A C14G A22G A49C G50U G58C the value was -4.18.
As for C5A G59C C96A A98U, the “polymerase ribozyme fitness (log ratio)” value is -0.127.
As to C5A A16C A19U U61A, the “polymerase ribozyme fitness (log ratio)” value is -2.61.
For C5A A26U C35G A39U C76U C85U C118U A119C the value was -4.09.
Then U4G U6G A22C A73G G83C, with no more than -4.2; and U4A A22C G48U C75G G84A, with no more than -4.2.
For U6A G83C the value was -0.841; for C5A U55G G68C, no more than -4.2.
With C5G A20G C75U C87U A119G A142G, the “polymerase ribozyme fitness (log ratio)” value is -3.16.
Then U4G A12U A39C G62A C76U C87G A91U, with no more than -4.2; and U4G C10U G83U A98U C105U, with -0.982.
For U4G A26U G50U C87A G141A A150U the value was no more than -4.2.
Then U4C U9A A41C G48C C51A G68A G83C, with no more than -4.2; and U4C G58A G83A C85U, with -1.97.
For U4A G11A A28U G65A C72U G80U G84C A91C A97C A106C C118U G141U, the “polymerase ribozyme fitness (log ratio)” value is no more than -4.2.
For C5G A12G G83A G94A G141C the value was -4.19; for C5A A21C G74A U82G G92U, no more than -4.2; for U4A C36A A52C A73G C95U, no more than -4.2.
Then U6A G50C C57A G83U C87A G94A, with no more than -4.2.
Then U4C A24U G81A C85U A89C, with -0.962; and C5A A28U, with -3.92.
For A3U U6G C35G G50U U78G C79U G141U, the “polymerase ribozyme fitness (log ratio)” value was no more than -4.2.
For the variant C5A A22U C75U C76A G88A A89C A91G C105U A119G U144G, the “polymerase ribozyme fitness (log ratio)” value was no more than -4.2.
For C5A A17U U56A U127A the value was -4.16; for C5G A16G A19G A24U A37G G50C G84U A120C G133U, no more than -4.2; for C5U C38U C54U G94U A115U A119G G136U A147U, -3.8.
In the case of C5A A23G U33G A66G G83A C87U A113G G124A U127C, the “polymerase ribozyme fitness (log ratio)” value is -3.78.
With U4G G84U A107U G140A, the “polymerase ribozyme fitness (log ratio)” value was no more than -4.2.
For U4C A20U A29U G46C C54U C85U C116U the value was no more than -4.2; for C5G C32A C76A U109G G141C, no more than -4.2; for U4G A97G C103G, -3.15.
Regarding C5U A16U C87A A106C, the “polymerase ribozyme fitness (log ratio)” value was no more than -4.2.
As for U4A C76G A91U A115U, the “polymerase ribozyme fitness (log ratio)” value is no more than -4.2.
Turning to C5A U7C G92C U139G, the “polymerase ribozyme fitness (log ratio)” value was -1.27.
Then C5G A19U A37U U45A U61A C87U, with no more than -4.2.
Then U4G U56G U144A, with -1.19; and C5A C36U C79U A121G, with no more than -4.2; and U6A A16C C27U U31G A52C C54G C118U, with no more than -4.2.
In the case of C5U A73G C85G, the “polymerase ribozyme fitness (log ratio)” value was -0.907.
For U4C G86A the value was -0.918.
For U4A C8U A16U A40C U53A C57U C87A A97U U145G the value was no more than -4.2; for U4A A121G A137C C149U, -4.16.
Turning to C5U A121G, the “polymerase ribozyme fitness (log ratio)” value was 0.614.
For C5A C72U C85U C95U the value was -0.0103.
Consider C5A A113U, for which the “polymerase ribozyme fitness (log ratio)” value is -2.74.
For C5A A28G G34C G74A U82A G86A C93A A97C, the “polymerase ribozyme fitness (log ratio)” value was no more than -4.2.
Consider U6A C57G C96U G141C, for which the “polymerase ribozyme fitness (log ratio)” value was -0.945.
For C5U U82A C103G A113U A137C U148A the value was no more than -4.2.
